Where a chain is given by its changes, count along the chain named. Numbers in names are those of the source. Each block holds one binder with its values, some of them ahead of it.
Experiments:
[1] = target: T1, purified recombinant CSPα^WT (E. coli, GST removed by TEV protease) (Homo sapiens (Human)), Q9H3Z4; assay: self-oligomerization of purified recombinant protein, SDS-PAGE and quantitative anti-CSPα immunoblot; settings: remark: other sources report otherwise
T1 chain: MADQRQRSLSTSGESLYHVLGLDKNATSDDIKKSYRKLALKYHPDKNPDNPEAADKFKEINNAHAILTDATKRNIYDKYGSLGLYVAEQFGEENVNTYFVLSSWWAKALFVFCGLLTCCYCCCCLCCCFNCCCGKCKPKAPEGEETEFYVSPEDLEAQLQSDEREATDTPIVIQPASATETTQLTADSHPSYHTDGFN

[2] = target: T2, purified recombinant CSPα^L115R (E. coli, GST removed by TEV protease) (Homo sapiens (Human)), Q9H3Z4; assay: as above; settings: remark: other sources report otherwise
T2 chain: T1 chain with L115R

- percent of protein existing as oligomers [1]: 75%
B1: purified recombinant CSPα^WT (E. coli, GST removed by TEV protease), Q9H3Z4 1-198 (protein)
chain: T1 chain
modifications: here or on the partner: Fe-S clusters bound at the Cys-string of the E. coli protein. No palmitoylation in bacteria.; Fe-S clusters bound at the Cys-string of the E. coli protein. No palmitoylation in bacteria.

- percent of protein existing as oligomers [2]: 75%
B2: purified recombinant CSPα^L115R (E. coli, GST removed by TEV protease), Q9H3Z4 1-198 (protein)
chain: T1 chain with L115R
modifications: here or on the partner: Fe-S clusters bound at the Cys-string of the E. coli protein.; Fe-S clusters bound at the Cys-string of the E. coli protein.
